Test results as given in US20240392000A1 (BIOGRAPH 55, published 2024).
Positions count from the first letter of the chain named. Values belong to the binder of their own block, whether it stands above or below them.

Target: CD38 antigen (in solution, Octet analyte) (human, UniProt P28907 43-300, limits assumed)
Assay: BLI (Octet Red), antibody captured on AHC sensor, antigen in solution, 1:1 model
Procedure: Binding experiments were performed on Octet Red at 25° C. The antibodies were loaded onto anti-hIgG Fc Capture (AHC) biosensors for 300 seconds. The ligand-loaded sensors were dipped into a two-fold series dilution (starting at 300 nM) of the antigens (CD19 and CD38) for 240 seconds of CD19 and 150 seconds of CD38 for association followed by dissociation for 600 seconds of CD19 and 130 seconds of CD38. Kinetic constants were calculated using a monovalent (1:1) binding model.

- Kd: 94.4 nM
B1: BS1M-4 (BS1 anti-CD38 arm CDR-H2 variant RVIPHLGTAN) (bispecific antibody, human IgG1, kappa)
heavy: not shown
VH: QVQLVQSGAEVKKPGSSVKVSCKASGGTFSSYAFSWVRQAPGQGLEWMGRVIPHLGTANSAQKFQGRVTITADKSTSTAYMELSSLRSEDTAVYYCARDDIAALGPFDYWGQGTLVTVSS
light: not shown
notes: BS1 format

- Kd: 60.5 nM
B2: BS1M-7 (BS1 anti-CD38 arm CDR-H2 variant RVIPQLGTAN) (bispecific antibody, human IgG1, kappa)
heavy: not shown
VH: B1 VH with H54Q
light: not shown
notes: BS1 format
